Experiment [1] deals with high affinity CTGF receptors on mouse fibroblasts (NTH3T3) (mouse). Put plainly: 125I-rhCTGF binding to cells, competition binding assay.
Experiment [2] addresses low affinity CTGF receptors on mouse fibroblasts (NTH3T3) (mouse). Described as above.
Experiment [3] has as its target high affinity CTGF receptors on NRK-49F rat fibroblasts (rat). The experiment can be described thus: 125I-rhCTGF binding to cell monolayers, Scatchard / competition with unlabeled CTGF.
Experiment [4] has as its target high affinity CTGF receptors on primary rat articular chondrocytes (rat). The experiment is described as above.
The target in experiment [5] is low affinity CTGF receptors on NRK-49F rat fibroblasts (rat). The experiment is described as above.
Experiment [6] addresses low affinity CTGF receptors on primary rat articular chondrocytes (rat). The description is as above.

One substance from patent US6464983 can be followed below.

One may read the Kd as the equilibrium constant for the complex coming apart. Consider “iodinated recombinant human Connective Tissue Growth Factor (rhCTGF) (from UniProt P29279 27-349) (ligand)”, for which the Kd is 5 to 10 pM in experiment [1]; 1800 pM in experiment [2]; 13 to 23 pM in experiment [3]; 21 pM in experiment [4]; 1100 to 2200 pM in experiment [5]; 1000 pM in experiment [6]. Further, the Sites/cell was found to be 480 sites/cell in experiment [1], 102000 sites/cell in experiment [2] and 150000 sites/cell in experiment [6].
